One substance from patent US20220409663A1 can be followed below.

The target of this experiment is transforming growth factor-beta receptor 2 (TGFBR2) (human) (UniProt P37173). The experiment in a line: cell-based or functional assay.

Some results are limits rather than exact numbers.

UniProt P37173, sequence (P37173 23-567): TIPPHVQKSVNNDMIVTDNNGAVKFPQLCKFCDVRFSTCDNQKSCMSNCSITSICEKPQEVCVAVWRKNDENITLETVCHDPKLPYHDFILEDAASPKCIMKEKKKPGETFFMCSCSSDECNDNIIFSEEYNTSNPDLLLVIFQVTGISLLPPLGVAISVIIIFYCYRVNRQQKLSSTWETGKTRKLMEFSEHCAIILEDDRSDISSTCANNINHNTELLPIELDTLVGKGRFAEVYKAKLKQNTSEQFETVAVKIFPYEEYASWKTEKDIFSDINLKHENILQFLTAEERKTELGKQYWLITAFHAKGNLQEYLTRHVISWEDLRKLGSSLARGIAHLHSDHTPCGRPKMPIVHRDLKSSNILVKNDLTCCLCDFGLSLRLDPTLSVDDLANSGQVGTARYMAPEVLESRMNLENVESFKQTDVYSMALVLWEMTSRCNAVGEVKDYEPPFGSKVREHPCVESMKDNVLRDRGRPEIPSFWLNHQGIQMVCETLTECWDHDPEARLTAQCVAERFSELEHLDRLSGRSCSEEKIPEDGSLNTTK

In the case of “transforming growth factor-β (TGFβ) (ligand)”, the fold change in cytokine concentration from TGF-β:vehicle treated cells (pro-inflammatory cytokine secretion, 3 days, TGF-β 10 ng/ml) (fold change (ratio)) was below 1.
